B1: ICL1-11 (peptide)
peptide: TAIAKFERLQTVTNYF
HELM: PEPTIDE1{[CCCCCCCCCCCCCCCC(=O)[*:2]].T.A.I.A.K.F.E.R.L.Q.T.V.T.N.Y.F.[am]}$$$$V2.0
SMILES: CCCCCCCCCCCCCCCC(=O)N[C@H](C(=O)N[C@@H](C)C(=O)N[C@H](C(=O)N[C@@H](C)C(=O)N[C@@H](CCCCN)C(=O)N[C@@H](Cc1ccccc1)C(=O)N[C@@H](CCC(=O)O)C(=O)N[C@@H](CCCNC(=N)N)C(=O)N[C@@H](CC(C)C)C(=O)N[C@@H](CCC(N)=O)C(=O)N[C@H](C(=O)N[C@H](C(=O)N[C@H](C(=O)N[C@@H](CC(N)=O)C(=O)N[C@@H](Cc1ccc(O)cc1)C(=O)N[C@@H](Cc1ccccc1)C(N)=O)[C@@H](C)O)C(C)C)[C@@H](C)O)[C@@H](C)CC)[C@@H](C)O
B2: ICL1-4 (peptide)
peptide: VITAIAKFERLQTVTN
HELM: PEPTIDE1{[CCCCCCCCCCCCCCCC(=O)[*:2]].V.I.T.A.I.A.K.F.E.R.L.Q.T.V.T.N.[am]}$$$$V2.0
SMILES: CCCCCCCCCCCCCCCC(=O)N[C@H](C(=O)N[C@H](C(=O)N[C@H](C(=O)N[C@@H](C)C(=O)N[C@H](C(=O)N[C@@H](C)C(=O)N[C@@H](CCCCN)C(=O)N[C@@H](Cc1ccccc1)C(=O)N[C@@H](CCC(=O)O)C(=O)N[C@@H](CCCNC(=N)N)C(=O)N[C@@H](CC(C)C)C(=O)N[C@@H](CCC(N)=O)C(=O)N[C@H](C(=O)N[C@H](C(=O)N[C@H](C(=O)N[C@@H](CC(N)=O)C(N)=O)[C@@H](C)O)C(C)C)[C@@H](C)O)[C@@H](C)CC)[C@@H](C)O)[C@@H](C)CC)C(C)C
B3: ICL1-20 (peptide)
peptide: LVITAIAKFERLQTVT
HELM: PEPTIDE1{[CCCCCCCCCCCCCCCC(=O)[*:2]].L.V.I.T.A.I.A.K.F.E.R.L.Q.T.V.T.[am]}$$$$V2.0
SMILES: CCCCCCCCCCCCCCCC(=O)N[C@@H](CC(C)C)C(=O)N[C@H](C(=O)N[C@H](C(=O)N[C@H](C(=O)N[C@@H](C)C(=O)N[C@H](C(=O)N[C@@H](C)C(=O)N[C@@H](CCCCN)C(=O)N[C@@H](Cc1ccccc1)C(=O)N[C@@H](CCC(=O)O)C(=O)N[C@@H](CCCNC(=N)N)C(=O)N[C@@H](CC(C)C)C(=O)N[C@@H](CCC(N)=O)C(=O)N[C@H](C(=O)N[C@H](C(=O)N[C@H](C(N)=O)[C@@H](C)O)C(C)C)[C@@H](C)O)[C@@H](C)CC)[C@@H](C)O)[C@@H](C)CC)C(C)C

What was measured:
[1] = molecular target: FLAG-β2AR (UniProt P07550 1-413, limits assumed); test: cell-based or functional assay
[2] = molecular target: β2AR-Renilla Reniformus luciferase II fusion (UniProt P07550 1-413); test: cell-based or functional assay

cAMP production in HEK293 cells stably overexpressing FLAG-β2AR [1] | EC50 of β-arrestin2 recruitment to the β2AR (BRET) [2] [nM] | Binder
~2 fold increase over vehicle | 1700 | B1
– | 1900 | B2
– | 1100 | B3

Reference: patent US20180353567A1 (THOMAS JEFFERSON UNIVERSITY, published 2018)
